Among the data in publication doi:10.1101/2020.06.23.166439 are stoichiometry N values, retold here.

Usually stoichiometry N stands for a count of units in the complex or per binding partner.

This test concerns the target tail tube protein (TTP) gp17.1 of bacteriophage SPP1 (bacteriophage SPP1). Put plainly: cryo-EM structure + other: solid-state NMR.

In the case of “tail tube protein (TTP) gp17.1 of bacteriophage SPP1 (natural protein)”, the stoichiometry N was determined as 6.
